Data on one substance can be found in patent US20180094059A1.

In the experiment the target is TRAIL receptors (TRAILR) on tumor cells. The experiment in a line: flow cytometry, Colo205 cells. (A flow cytometer gives signals particle by particle.)

Sequence of scTRAIL3-… (P50591 other isoform, or with tags, fused parts or gaps): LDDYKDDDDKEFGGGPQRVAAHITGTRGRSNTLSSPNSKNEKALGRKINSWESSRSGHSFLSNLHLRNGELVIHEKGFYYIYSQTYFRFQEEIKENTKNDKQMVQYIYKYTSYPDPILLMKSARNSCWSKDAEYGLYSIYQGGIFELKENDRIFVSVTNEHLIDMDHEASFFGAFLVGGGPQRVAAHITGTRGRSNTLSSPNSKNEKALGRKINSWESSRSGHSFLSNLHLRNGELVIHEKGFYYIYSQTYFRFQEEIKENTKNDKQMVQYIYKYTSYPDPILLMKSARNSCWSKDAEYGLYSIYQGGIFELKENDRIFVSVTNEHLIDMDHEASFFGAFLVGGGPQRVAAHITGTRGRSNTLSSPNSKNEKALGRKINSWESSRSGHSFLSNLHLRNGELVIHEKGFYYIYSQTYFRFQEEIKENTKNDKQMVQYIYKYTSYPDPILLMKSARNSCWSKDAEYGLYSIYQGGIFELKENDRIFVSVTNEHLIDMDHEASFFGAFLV

A word on the EC50: it is the concentration giving half of the maximal effect. “scTRAIL3-… (from UniProt P50591 118-281) (ligand)” returned an EC50 of 5.67 nM. In other words, the single-digit nanomolar range.
